Measured values taken from IntAct's records for PubMed 32066962.

B1: Repressor of RNA polymerase III transcription MAF1 (Saccharomyces cerevisiae), P41910 (parent)
chain: MKFIDELDIERVNQTLNFETNDCKIVGSCDIFTTKAVASDRKLYKTIDQHLDTILQENENYNATLQQQLAAPETNQSPCSSPFYSNRRDSNSFWEQKRRISFSEYNSNNNTNNSNGNSSNNNNYSGPNGSSPATFPKSAKLNDQNLKELVSNYDSGSMSSSSLDSSSKNDERIRRRSSSSISSFKSGKSSNNNYSSGTATNNVNKRRKSSINERPSNLSLGPFGPINEPSSRKIFAYLIAILNASYPDHDFSSVEPTDFVKTSLKTFISKFENTLYSLGRQPEEWVWEVINSHMTLSDCVLFQYSPSNSFLEDEPGYLWNLIGFLYNRKRKRVAYLYLICSRLNSSTGEVEDALAKKPQGKLIIDDGSNEYEGEYDFTYDENVIDDKSDQEESLQ
partner: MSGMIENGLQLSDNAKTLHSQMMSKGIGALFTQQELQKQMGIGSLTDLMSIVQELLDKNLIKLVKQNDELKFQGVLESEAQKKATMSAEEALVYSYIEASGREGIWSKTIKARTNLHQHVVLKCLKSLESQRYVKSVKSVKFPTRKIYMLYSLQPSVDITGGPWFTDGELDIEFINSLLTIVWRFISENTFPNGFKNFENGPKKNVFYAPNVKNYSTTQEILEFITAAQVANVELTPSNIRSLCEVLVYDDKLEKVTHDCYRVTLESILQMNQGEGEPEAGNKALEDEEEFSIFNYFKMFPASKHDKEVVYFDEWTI

Variants of: B1
Details: with rpc6_yeast RPC34, P32910

Variant | effect of a mutation on the interaction
MKFIDELDIERVNQTLNFETNDCKIVGSCDIFTTKAVASDRKLYKTIDQHLDTILQENENYNATLQQQLAAPETNQSPCSSPFYSNRRDSNSFWEQKRRISFSEYNSNNNTNNSNGNSSNNNNYSGPNGSSPATFPKSAKLNDQNLKELVSNYDSGSMSSSSLDSSSKNDERIRRRSSSSISSFKSGKSSNNNYSSGTATNNVNKRRKSSINERPSNLSLGPFGPINEPSSRKIFAYLIAILNASYPDHDFSSVEPTDFVKTSLKTFISKFENTLYSLGRQPEEWVWEVINSHMTLSDCVLFQYSPSNSFLEDEPGYSSNLIGFLYNRKRKRVAYLYLICSRLNSSTGEVEDALAKKPQGKLIIDDGSNEYEGEYDFTYDENVIDDKSDQEESLQ [L318S;W319S] | with no effect
MKFIDELDIERVNQTLNFETNDCKIVGSCDIFTTKAVASDRKLYKTIDQHLDTILQENENYNATLQQQLAAPETNQSPCSSPFYSNRRDSNSFWEQKRRISFSEYNSNNNTNNSNGNSSNNNNYSGPNGSSPATFPKSAKLNDQNLKELVSNYDSGSMSSSSLDSSSKNDERIRRRSSSSISSFKSGKSSNNNYSSGTATNNVNKRRKSSINERPSNLSLGPFGPINEPSSRKIFAYLIAILNASYPAHAFSSVEPTDFVKTSLKTFISKFENTLYSLGRQPEEWVWEVINSHMTLSDCVLFQYSPSNSFLEDEPGYLWNLIGFLYNRKRKRVAYLYLICSRLNSSTGEVEDALAKKPQGKLIIDDGSNEYEGEYDFTYDENVIDDKSDQEESLQ [D248A;D250A] | disrupting interaction strength
MKFIDELDIERVNQTLNFETNDCKIVGSCDIFEEKAVASDRKLYKTIDQHLDTILQENENYNATLQQQLAAPETNQSPCSSPFYSNRRDSNSFWEQKRRISFSEYNSNNNTNNSNGNSSNNNNYSGPNGSSPATFPKSAKLNDQNLKELVSNYDSGSMSSSSLDSSSKNDERIRRRSSSSISSFKSGKSSNNNYSSGTATNNVNKRRKSSINERPSNLSLGPFGPINEPSSRKIFAYLIAILNASYPDHDFSSVEPTDFVKTSLKTFISKFENTLYSLGRQPEEWVWEVINSHMTLSDCVLFQYSPSNSFLEDEPGYLWNLIGFLYNRKRKRVAYLYLICSRLNSSTGEVEDALAKKPQGKLIIDDGSNEYEGEYDFTYDENVIDDKSDQEESLQ [T33E;T34E] | with no effect
